# Measured values taken from article PMC4883682.
# Target: C-terminally labeled STIM1(del302-448) (STIM1(del302-448)-AcGFP / STIM1(del302-448)-mApple) (human) (UniProt Q13586)
# Assay: cross-linking; chemical crosslinking with dithiobis(succinymidyl propionate); constructs separately expressed; unstimulated state (Supplemental Figure S2)
substance,measurement,value
C-terminally labeled STIM1(del302-448) (STIM1(del302-448)-AcGFP / STIM1(del302-448)-mApple) (from UniProt Q13586 23-685) (natural protein),stoichiometry N,2
